Measurements from US20250235548A1, “ANTIBODY-DRUG CONJUGATES TARGETING NAPI2B AND METHODS OF USE” (Zymeworks BC Inc., priority 2022, published 2025).

Key:
[1] = target: human sodium-dependent phosphate transporter 2B (NaPi2b) (human) (UniProt O95436); assay: flow cytometry competition, HEK293-6e cells expressing human NaPi2b; row antibody unlabeled at 100 ug/mL (the reference of the calculation); competitor: AF647-labeled v23855 at 1 ug/mL
[2] = target: human sodium-dependent phosphate transporter 2B (NaPi2b) (human) (UniProt O95436); assay: flow cytometry competition, HEK293-6e cells expressing human NaPi2b; row antibody unlabeled at 100 ug/mL (the reference of the calculation); competitor: AF647-labeled v18992 (MX35) at 1 ug/mL
[3] = target: human sodium-dependent phosphate transporter 2B (NaPi2b) (human) (UniProt O95436); assay: flow cytometry competition, HEK293-6e cells expressing human NaPi2b; row antibody unlabeled at 100 ug/mL (the reference of the calculation); competitor: AF647-labeled v18993 (lifastuzumab) at 1 ug/mL
[4] = target: human sodium-dependent phosphate transporter 2B (NaPi2b) (human) (UniProt O95436); assay: flow cytometry competition, HEK293-6e cells expressing human NaPi2b; row antibody unlabeled at 100 ug/mL (the reference of the calculation); competitor: AF647-labeled v16955 (negative control) at 1 ug/mL
[5] = target: Fcγ receptor (FcγR) on the surface of immune effector cells; assay: cell-based or functional assay

Chain of human sodium-dependent phosphate transporter 2B (NaPi2b) (human) (O95436 whole entry): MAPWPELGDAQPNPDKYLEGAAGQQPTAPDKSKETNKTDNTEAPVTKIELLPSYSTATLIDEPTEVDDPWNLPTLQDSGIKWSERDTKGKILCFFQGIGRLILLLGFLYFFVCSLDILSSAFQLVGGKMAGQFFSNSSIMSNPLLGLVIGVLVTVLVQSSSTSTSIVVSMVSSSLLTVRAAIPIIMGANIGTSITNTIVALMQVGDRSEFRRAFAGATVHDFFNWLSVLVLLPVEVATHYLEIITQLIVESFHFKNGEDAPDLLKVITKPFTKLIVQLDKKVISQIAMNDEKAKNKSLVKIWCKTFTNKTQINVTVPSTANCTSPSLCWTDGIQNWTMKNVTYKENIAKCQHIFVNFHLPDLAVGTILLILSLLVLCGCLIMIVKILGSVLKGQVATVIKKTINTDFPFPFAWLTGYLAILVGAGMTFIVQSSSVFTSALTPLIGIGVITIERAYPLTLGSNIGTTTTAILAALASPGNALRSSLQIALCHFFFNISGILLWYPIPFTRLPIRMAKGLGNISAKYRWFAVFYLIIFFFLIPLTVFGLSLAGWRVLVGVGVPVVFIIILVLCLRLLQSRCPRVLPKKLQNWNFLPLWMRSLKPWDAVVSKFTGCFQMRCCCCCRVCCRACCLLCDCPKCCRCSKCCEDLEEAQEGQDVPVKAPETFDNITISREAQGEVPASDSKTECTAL

Row | % Inhibition vs. irrelevant mAb [1] | % Inhibition vs. irrelevant mAb [2] | % Inhibition vs. irrelevant mAb [3] | % Inhibition vs. irrelevant mAb [4] | % ADCC at 0.0192 nM (25 PBMCs:1 IGROV-1) [5] | % ADCC at 0.48 nM (25 PBMCs:1 IGROV-1) [5] | % ADCC at 12 nM (25 PBMCs:1 IGROV-1) [5] | Substance
1 | 0% | 0% | 0% | 0% |  |  |  | v16955 (Palivizumab), anti-RSV negative control antibody
2 |  |  |  |  | 5.96% | 14% | 14.4% | v18993 (lifastuzumab) (antibody)
